One series has as its target Grb2 SH2 (UniProt P62993). The series is described as follows: SH2 binding enrichment of the phosphorylated peptide, bacterial display (enrichment ratio); higher = better substrate or ligand; peptides without Tyr show the background.
Another series deals with c-Src SH2. Described as above.
A further series has as its target SHP2-C SH2. Described as above.
A further series concerns the target Hck (UniProt P08631). As to the kind of experiment: phosphorylation enrichment, bacterial display (enrichment ratio); higher = better substrate or ligand; peptides without Tyr show the background.
For another series, the system named is c-Src. The series is described as above.
The target in a further series is Jak2 (UniProt O60674). Described as above.
The target of the next series is FGFR3 (UniProt P22607). The series is described as above.
In a further series the target is EPHB2 (UniProt P29323). The description is as above.
Another series relates to c-Abl (mouse). The description is as above.
In the next series the test system is AncSZ. The series is described as above.
A further series addresses Fes (UniProt P07332). The series is described as above.
The target in the next series is Fyn (UniProt P06241). The series is described as above.
In the next series the target is MERTK (UniProt Q12866). Described as above.
The target of the next series is EPHB1 (UniProt P54762). The series is described as above.
A further series addresses FGFR1 (UniProt P11362). The description is as above.
The test system of a further series is Fer (mouse). The description is as above.
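For SH2 binding enrichment of the phosphorylated peptide, bacterial display in this document: peptide library displayed on the E. coli surface as eCPX fusions, selected cells deep-sequenced, score is each peptide's frequency after selection divided by its frequency in the input.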
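For phosphorylation enrichment, bacterial display in this document: 11-residue human phosphosite peptides and single-mutation variants displayed on the E. coli surface, counted by deep sequencing, each peptide's frequency after selection divided by its frequency in the unselected input library; frequency after pTyr selection over input frequency; kinase dosed for 20-30% of maximal phosphorylation in three min.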

Grb2 SH2, sequence (P62993 whole entry, looked up): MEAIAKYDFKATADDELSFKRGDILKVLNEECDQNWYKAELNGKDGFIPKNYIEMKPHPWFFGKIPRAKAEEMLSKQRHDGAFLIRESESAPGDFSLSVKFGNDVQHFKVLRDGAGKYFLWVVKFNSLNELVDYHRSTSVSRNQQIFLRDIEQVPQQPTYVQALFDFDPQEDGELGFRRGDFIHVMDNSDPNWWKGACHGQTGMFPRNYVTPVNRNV
FGFR3, sequence (P22607 whole entry, looked up): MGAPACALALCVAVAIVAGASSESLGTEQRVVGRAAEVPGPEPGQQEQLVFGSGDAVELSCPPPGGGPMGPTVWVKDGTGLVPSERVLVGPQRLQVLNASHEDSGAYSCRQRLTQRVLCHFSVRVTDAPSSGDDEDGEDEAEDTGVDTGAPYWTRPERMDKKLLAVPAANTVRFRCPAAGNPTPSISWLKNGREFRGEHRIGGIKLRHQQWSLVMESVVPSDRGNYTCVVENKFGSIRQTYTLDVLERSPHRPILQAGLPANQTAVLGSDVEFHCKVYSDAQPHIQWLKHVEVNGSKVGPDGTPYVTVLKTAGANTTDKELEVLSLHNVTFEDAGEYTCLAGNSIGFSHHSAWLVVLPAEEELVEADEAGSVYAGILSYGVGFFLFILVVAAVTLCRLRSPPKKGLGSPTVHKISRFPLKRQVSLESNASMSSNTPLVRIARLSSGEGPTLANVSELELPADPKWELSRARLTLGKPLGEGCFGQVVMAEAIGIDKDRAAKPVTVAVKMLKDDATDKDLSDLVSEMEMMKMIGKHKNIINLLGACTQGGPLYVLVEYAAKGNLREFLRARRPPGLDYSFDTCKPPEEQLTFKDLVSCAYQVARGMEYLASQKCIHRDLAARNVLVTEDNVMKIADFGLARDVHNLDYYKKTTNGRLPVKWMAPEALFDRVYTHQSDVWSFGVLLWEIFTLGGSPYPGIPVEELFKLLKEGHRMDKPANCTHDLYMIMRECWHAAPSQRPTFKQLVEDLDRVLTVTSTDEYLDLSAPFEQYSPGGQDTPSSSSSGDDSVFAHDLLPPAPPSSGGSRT
EPHB2, sequence (P29323 whole entry, looked up): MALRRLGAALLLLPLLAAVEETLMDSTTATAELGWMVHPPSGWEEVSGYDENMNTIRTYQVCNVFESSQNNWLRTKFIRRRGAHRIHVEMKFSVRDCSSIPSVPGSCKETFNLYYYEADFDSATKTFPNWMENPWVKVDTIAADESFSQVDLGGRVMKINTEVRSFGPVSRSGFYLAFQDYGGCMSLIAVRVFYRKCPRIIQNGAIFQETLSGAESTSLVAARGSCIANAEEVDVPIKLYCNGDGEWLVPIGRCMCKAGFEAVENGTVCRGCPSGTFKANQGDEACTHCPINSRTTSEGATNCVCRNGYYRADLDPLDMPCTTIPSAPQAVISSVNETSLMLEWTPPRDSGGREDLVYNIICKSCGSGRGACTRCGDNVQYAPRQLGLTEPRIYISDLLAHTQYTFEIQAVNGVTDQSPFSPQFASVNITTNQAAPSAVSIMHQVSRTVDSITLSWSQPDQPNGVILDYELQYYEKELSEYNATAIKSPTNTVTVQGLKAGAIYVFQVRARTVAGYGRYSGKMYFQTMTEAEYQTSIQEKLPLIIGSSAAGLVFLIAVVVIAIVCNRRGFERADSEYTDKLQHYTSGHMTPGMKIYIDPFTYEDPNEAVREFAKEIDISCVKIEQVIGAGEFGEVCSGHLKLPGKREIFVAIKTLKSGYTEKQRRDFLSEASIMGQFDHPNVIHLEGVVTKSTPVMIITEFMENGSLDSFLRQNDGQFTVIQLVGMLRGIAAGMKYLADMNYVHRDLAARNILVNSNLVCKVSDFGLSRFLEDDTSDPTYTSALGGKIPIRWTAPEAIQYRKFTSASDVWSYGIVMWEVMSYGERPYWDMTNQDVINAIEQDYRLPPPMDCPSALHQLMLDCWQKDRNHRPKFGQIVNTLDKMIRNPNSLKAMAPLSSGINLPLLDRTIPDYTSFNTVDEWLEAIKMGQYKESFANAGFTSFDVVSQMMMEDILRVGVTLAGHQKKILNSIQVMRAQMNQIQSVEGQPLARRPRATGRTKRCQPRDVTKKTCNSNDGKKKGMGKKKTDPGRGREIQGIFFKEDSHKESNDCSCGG
FGFR1, sequence (P11362 whole entry, looked up): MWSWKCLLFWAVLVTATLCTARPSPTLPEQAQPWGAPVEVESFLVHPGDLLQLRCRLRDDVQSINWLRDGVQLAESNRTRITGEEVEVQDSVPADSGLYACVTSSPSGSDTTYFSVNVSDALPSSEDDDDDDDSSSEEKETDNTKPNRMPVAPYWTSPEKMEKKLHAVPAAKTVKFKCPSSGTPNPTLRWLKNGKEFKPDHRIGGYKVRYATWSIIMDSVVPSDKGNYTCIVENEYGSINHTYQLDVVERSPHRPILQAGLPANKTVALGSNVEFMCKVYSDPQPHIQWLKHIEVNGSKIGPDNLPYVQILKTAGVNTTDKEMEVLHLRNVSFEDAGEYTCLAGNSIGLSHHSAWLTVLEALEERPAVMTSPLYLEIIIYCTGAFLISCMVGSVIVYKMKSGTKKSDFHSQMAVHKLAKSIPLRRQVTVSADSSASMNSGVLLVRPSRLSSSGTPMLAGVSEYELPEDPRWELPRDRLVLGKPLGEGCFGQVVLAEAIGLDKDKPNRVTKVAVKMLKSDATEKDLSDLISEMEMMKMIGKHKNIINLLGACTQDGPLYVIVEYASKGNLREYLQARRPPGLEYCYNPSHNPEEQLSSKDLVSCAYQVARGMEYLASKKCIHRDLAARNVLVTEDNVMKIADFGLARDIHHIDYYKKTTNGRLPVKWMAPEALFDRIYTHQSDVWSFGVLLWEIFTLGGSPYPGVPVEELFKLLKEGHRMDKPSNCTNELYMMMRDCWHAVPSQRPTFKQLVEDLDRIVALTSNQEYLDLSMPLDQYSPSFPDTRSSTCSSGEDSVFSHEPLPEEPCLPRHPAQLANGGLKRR
Jak2, sequence (O60674 whole entry, looked up): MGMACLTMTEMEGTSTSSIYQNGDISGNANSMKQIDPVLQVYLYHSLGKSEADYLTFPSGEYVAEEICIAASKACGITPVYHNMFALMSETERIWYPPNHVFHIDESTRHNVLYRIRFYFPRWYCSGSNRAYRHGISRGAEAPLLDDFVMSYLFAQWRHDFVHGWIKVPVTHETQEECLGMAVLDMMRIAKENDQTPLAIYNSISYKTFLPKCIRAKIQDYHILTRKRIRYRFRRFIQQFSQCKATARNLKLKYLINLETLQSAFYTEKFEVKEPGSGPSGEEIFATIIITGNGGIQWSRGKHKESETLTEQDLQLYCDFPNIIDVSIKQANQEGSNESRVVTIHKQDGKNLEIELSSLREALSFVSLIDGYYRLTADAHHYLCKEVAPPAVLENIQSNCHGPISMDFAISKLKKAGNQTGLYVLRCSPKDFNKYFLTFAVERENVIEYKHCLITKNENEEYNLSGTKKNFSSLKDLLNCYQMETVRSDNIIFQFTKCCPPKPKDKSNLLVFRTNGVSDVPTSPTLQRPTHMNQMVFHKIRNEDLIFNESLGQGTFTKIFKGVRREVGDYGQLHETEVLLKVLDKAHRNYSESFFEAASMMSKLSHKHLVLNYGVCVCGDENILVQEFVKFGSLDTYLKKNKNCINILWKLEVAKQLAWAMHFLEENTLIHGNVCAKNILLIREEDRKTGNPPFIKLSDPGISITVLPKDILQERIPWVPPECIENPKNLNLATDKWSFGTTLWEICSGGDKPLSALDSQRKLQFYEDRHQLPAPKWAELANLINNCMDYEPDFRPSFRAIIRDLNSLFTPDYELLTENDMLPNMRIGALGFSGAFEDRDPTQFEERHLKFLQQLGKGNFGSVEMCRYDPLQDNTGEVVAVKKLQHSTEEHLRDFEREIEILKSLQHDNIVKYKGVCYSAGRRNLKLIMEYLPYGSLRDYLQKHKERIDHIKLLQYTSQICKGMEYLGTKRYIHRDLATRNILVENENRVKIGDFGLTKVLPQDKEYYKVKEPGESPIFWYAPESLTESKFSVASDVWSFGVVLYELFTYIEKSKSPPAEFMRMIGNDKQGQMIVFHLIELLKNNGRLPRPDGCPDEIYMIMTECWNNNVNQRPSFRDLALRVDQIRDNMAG
EPHB1, sequence (P54762 whole entry, looked up): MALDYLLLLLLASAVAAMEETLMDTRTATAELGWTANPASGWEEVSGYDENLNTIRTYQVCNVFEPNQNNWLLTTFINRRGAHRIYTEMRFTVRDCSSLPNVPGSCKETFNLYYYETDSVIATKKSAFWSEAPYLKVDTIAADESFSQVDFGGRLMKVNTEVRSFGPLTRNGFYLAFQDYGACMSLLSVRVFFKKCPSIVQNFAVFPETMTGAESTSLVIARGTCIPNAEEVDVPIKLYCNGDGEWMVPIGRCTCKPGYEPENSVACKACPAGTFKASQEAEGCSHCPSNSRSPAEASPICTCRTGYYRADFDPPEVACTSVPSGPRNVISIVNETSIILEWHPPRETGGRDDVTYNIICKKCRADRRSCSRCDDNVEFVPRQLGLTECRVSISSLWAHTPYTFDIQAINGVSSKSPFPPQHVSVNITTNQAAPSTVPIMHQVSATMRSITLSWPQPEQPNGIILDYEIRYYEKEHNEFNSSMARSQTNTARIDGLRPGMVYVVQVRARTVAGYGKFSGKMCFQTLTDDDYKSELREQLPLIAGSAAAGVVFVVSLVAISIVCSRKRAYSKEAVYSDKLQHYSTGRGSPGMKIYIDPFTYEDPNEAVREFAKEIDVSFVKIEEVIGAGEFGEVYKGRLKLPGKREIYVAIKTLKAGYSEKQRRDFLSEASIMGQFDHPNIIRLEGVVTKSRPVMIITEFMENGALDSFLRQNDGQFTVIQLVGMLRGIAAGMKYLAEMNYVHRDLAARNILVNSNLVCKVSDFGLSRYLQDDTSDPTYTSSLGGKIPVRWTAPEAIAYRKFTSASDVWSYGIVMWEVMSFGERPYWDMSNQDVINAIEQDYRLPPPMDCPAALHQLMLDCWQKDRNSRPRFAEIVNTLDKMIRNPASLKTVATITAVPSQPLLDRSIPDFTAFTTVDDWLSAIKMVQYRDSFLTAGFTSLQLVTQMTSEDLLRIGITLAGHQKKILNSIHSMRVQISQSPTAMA

In the case of TSRVLYPNDNF [PYGM_Y281_I276T], the SH2 binding enrichment in the series with Grb2 SH2 was determined as 0.922; in the series with c-Src SH2, 0.643; in the series with SHP2-C SH2, 0.771. Moreover, the phosphorylation enrichment came to 0.558 in the series with Hck; 0.415 in the series with c-Src; 0.638 with Jak2; 0.436 with FGFR3; 0.424 in the series with EPHB2; 0.51 in the series with c-Abl (mouse). The phosphorylation enrichment in the series with AncSZ was found to be 0.64; with Fes, 0.7; with Fyn, 0.456; in the series with MERTK, 0.408; with EPHB1, 0.456; in the series with FGFR1, 0.545. In the series with Fer (mouse), the phosphorylation enrichment was 0.432.

For TSSSRYFDEPV [ARFGAP3_Y356_S355R], the SH2 binding enrichment with Grb2 SH2 was determined as 0.725; with c-Src SH2, 0.475; in the series with SHP2-C SH2 it was 0.745. The phosphorylation enrichment with Hck is 0.495; in the series with c-Src, 0.399; with Jak2, 0.61; in the series with FGFR3, 0.688; with EPHB2, 0.395; with c-Abl (mouse), 0.447. In addition, the phosphorylation enrichment in the series on AncSZ was determined as 0.792; with Fes it was 0.839; with Fyn it was 0.511; with MERTK, 0.391; with EPHB1, 0.508; in the series with FGFR1, 0.597. In addition, the phosphorylation enrichment with Fer (mouse) came out at 0.417.

Turning to TTHRGYDSDNP [MMUT_Y146_A141T], the SH2 binding enrichment with Grb2 SH2 was 1.02; with c-Src SH2, 0.413; with SHP2-C SH2, 0.595. Also, the phosphorylation enrichment with Hck was 0.665; with c-Src, 0.389; with Jak2, 0.699; in the series with FGFR3 it was 0.823; in the series with EPHB2, 0.532; in the series with c-Abl (mouse), 0.642. In addition, the phosphorylation enrichment in the series with AncSZ is 0.744; in the series with Fes, 0.859; with Fyn it was 0.685; with MERTK it was 0.53; with EPHB1, 0.685; with FGFR1, 0.542. In addition, the phosphorylation enrichment with Fer (mouse) was 0.423.

For the sequence TVEDHYYEGGI [TKT_Y563], the SH2 binding enrichment in the series with Grb2 SH2 amounted to 0.569; in the series with c-Src SH2, 3.79; with SHP2-C SH2, 0.482. In addition, the phosphorylation enrichment with Hck turned out to be 0.565; with c-Src it was 0.588; with Jak2 it was 1.06; in the series with FGFR3, 1.9; with EPHB2, 0.583; in the series with c-Abl (mouse), 0.745. Besides, the phosphorylation enrichment in the series with AncSZ stood at 1.27; with Fes, 1.23; in the series with Fyn, 0.589; with MERTK, 0.574; with EPHB1, 0.789; with FGFR1 it was 1.72. The phosphorylation enrichment in the series on Fer (mouse) is 0.636.

For TVLWRYTGTRP [UGT1A1_Y337], the values for the SH2 binding enrichment with Grb2 SH2, with c-Src SH2 and with SHP2-C SH2 were 0.707, 0.588 and 0.724, respectively. Also, the phosphorylation enrichment in the series with Hck is 0.557; with c-Src, 0.344; in the series with Jak2 it was 0.779; in the series with FGFR3 it was 0.606; with EPHB2, 0.582; with c-Abl (mouse), 0.633. Besides, the phosphorylation enrichment in the series with AncSZ was found to be 1.17; with Fes, 1.01; with Fyn it was 0.411; with MERTK it was 0.317; with EPHB1, 0.432; with FGFR1 it was 0.495. In addition, the phosphorylation enrichment with Fer (mouse) turned out to be 0.423.

Turning to TYACSYTPVKA [FLNB_Y708], the SH2 binding enrichment worked out at 0.85 with Grb2 SH2, 1.54 with c-Src SH2 and 7.09 with SHP2-C SH2. Moreover, the phosphorylation enrichment with Hck was found to be 1.32; in the series with c-Src, 2.4; with Jak2, 1.24; in the series with FGFR3 it was 0.627; in the series with EPHB2, 0.868; in the series on c-Abl (mouse) it was 1.78. For the same sequence, the phosphorylation enrichment in the series with AncSZ amounted to 0.991; with Fes, 1.06; with Fyn, 1.25; with MERTK, 3.02; with EPHB1, 0.567; in the series with FGFR1, 0.877. The phosphorylation enrichment in the series on Fer (mouse) turned out to be 0.78.

With VAFVFYKSIGP [ADGRL4_Y302_YF], the SH2 binding enrichment turned out to be 0.897 with Grb2 SH2, 0.553 in the series with c-Src SH2 and 0.874 with SHP2-C SH2. Also, the phosphorylation enrichment amounted to 0.424 with Hck; 0.407 with c-Src; 0.868 with Jak2; 0.781 in the series with FGFR3; 0.571 with EPHB2; 1.04 with c-Abl (mouse). Further, the phosphorylation enrichment in the series with AncSZ is 1.2; with Fes, 1.39; with Fyn, 0.501; with MERTK, 0.422; in the series with EPHB1, 0.663; with FGFR1, 0.543. In the series with Fer (mouse), the phosphorylation enrichment was 0.595.

As to VARAVYQAVLS [SMG1_Y549_H546R], the SH2 binding enrichment with Grb2 SH2 stood at 0.708; with c-Src SH2 it was 1; with SHP2-C SH2, 0.834. The phosphorylation enrichment with Hck came to 2.26; in the series on c-Src, 1.36; with Jak2 it was 0.722; in the series with FGFR3, 0.585; with EPHB2 it was 0.567; in the series on c-Abl (mouse), 0.75. The phosphorylation enrichment stood at 0.999 in the series on AncSZ; 0.97 with Fes; 1.07 with Fyn; 0.758 in the series with MERTK; 0.526 with EPHB1; 0.468 in the series with FGFR1. Further, the phosphorylation enrichment in the series with Fer (mouse) was determined as 1.33.

Values taken from the supplement of paper PMC10065799, “High-throughput profiling of sequence recognition by tyrosine kinases and SH2 domains using bacterial peptide display” (eLife, 2023).
